Laboratory results: patent US20250263440A1, “CD38-BINDING AGENTS AND USES THEREOF” (PeptiDream Inc., priority 2019, published 2025)
Like-named read-outs stand apart in the source and are kept apart here. One block for each binder: values may come before it. Starred links: 1 amine or outer side, 2 acyl side, 3 side chain; linkers in the order of their positions; H or OH if unused. Positions of bridges follow the written chain, without caps; N, C: chain ends. Non-standard residues stand in square brackets, D forms with d. No end group written: not given here. F3G = 3-guanidinophenylalanine, N=C(N)Nc1cccc(C[C@H](N[*:1])C(=O)[*:2])c1; Bip = N[C@@H](Cc1ccc(-c2ccccc2)cc1)C(=O)O; Met(O2) = CS(=O)(=O)CC[C@H](N)C(=O)O; NMeF = CN[C@@H](Cc1ccccc1)C(=O)O; hArg = N=C(N)NCCCC[C@H](N)C(=O)O; Ahp(2) = CCCCC[C@H](N)C(=O)O

Columns and labels:
His-tagged CD38 = biological target: T1, His-tagged CD38 (human, UniProt P28907 43-300, limits assumed); experiment: SPR (Biacore S200), His-tagged CD38 immobilised, single-cycle kinetics
T1 construct: The order of CD38 and tag is not known; not shown: His tag
Experimental: EDC/NHS mixture was injected at a flow rate of […] for 7 minutes to thereby activate the functional groups on sensor chip. His-tagged CD38 in Running Buffer (10 mM HEPES pH7.4, 150 mM NaCl, 0.05% Tween 20) was injected immobilized to at a flow rate of […]. For 7 minutes to immobilize the CD38 on the substrate surfaces of the sensor chip. Then Ethanolamine was injected at a flow rate of […] for 7 minutes.
1.0 M Ethanolamine(aq.) was injected at a flow rate of 10 L/min for 420 seconds for capping. 10 mM peptides (which were synthesised described above) in DMSO were diluted to obtain 10 uM with Running Buffer, and prepared 100 nM, 50 nM, 25 nM, 10 nM, 5 nM of each peptide's solutions (Peptide Samples).
Using these Peptide Samples, kinetics of peptides against His-tagged CD38 was measured. The method adopted for sample measurement was a single-cycle kinetics method. The analysis was conducted using the evaluation software 1.1 provided with Biacore S200. A DMSO correction curve obtained by solvent correction measurements was applied for the analysis. Kinetics fitting was done on the difference data obtained by subtracting the baseline data from sample measurement data.

[1] = biological target: T2, Recombinant human CD38 protein (R&D Systems) (human, UniProt P28907 43-300); experiment: ELISA
[2] = biological target: T2, Recombinant human CD38 protein (R&D …); experiment: ELISA; remark: listed apart in the source

Kd (His-tagged CD38): 2 nM
B1: Circular peptide having amino acid sequence represented by SEQ ID NO.29 (peptide)
peptide: {CH2CO}-A[F3G][Ahp(2)]YHDEVL[Bip][Ahp(2)]DC
modifications: thioether N-13; not fully specified; also: circular peptide, closure not given here

Binding Assay (larger values indicate stronger binding) [1]: 0.37
Binder: {CH2CO}-ALA[NMeF]VLP[Bip]VWVC (thioether N-12) [I-2 analogue with Ala at position 3 (A L A MeF V L P Bph V W V C)]

Binding Assay (larger values indicate stronger binding) [1]: 0.1
Binder: {CH2CO}-ALHAVLP[Bip]VWVC (thioether N-12) [I-2 analogue with Ala at position 4 (A L H A V L P Bph V W V C)]

Binding Assay (larger values indicate stronger binding) [2]: 0.11
Binder: {CH2CO}-ARAYHDGVL[Bip][Ahp(2)]DC (thioether N-13) [I-1 analogue with Ala at position 3 (A R A Y H D G V L Bph Ahp D C)]

Kd (His-tagged CD38): 26 nM
B2: Circular peptide having amino acid sequence represented by SEQ ID NO.26 (peptide)
peptide: ARXYHDEVLXXDC
modifications: not fully specified; Ahp at 3; Bph at 10; PhNva ((S)-2-amino-5-phenylpentanoic acid) at 11; circular peptide

Kd (His-tagged CD38): 1.38 nM
B3: Circular peptide having amino acid sequence represented by SEQ ID NO.25 (peptide)
peptide: ARXYHDEVLXXDC
modifications: not fully specified; Ahp at 3; Bph at 10; PhNle ((S)-2-amino-6-phenylhexanoic acid) at 11; circular peptide

Kd (His-tagged CD38): 2.29 nM
B4: Circular peptide having amino acid sequence represented by SEQ ID NO.12 (peptide)
peptide: {CH2CO}-AR[Ahp(2)]YHD[hArg]VL[Bip][Ahp(2)]DC
modifications: thioether N-13; not fully specified; also: circular peptide, closure not given here

Binding Assay (larger values indicate stronger binding) [1]: 0.47
Binder: {CH2CO}-ALH[NMeF]ALP[Bip]VWVC (thioether N-12) [I-2 analogue with Ala at position 5 (A L H MeF A L P Bph V W V C)]

Binding Assay (larger values indicate stronger binding) [1]: 0.09
Binder: {CH2CO}-ALH[NMeF]VAP[Bip]VWVC (thioether N-12) [I-2 analogue with Ala at position 6 (A L H MeF V A P Bph V W V C)]

Binding Assay (larger values indicate stronger binding) [1]: 0.12
Binder: {CH2CO}-ALH[NMeF]VLP[Bip]AWVC (thioether N-12) [I-2 analogue with Ala at position 9 (A L H MeF V L P Bph A W V C)]

Binding Assay (larger values indicate stronger binding) [2]: 0.09
Binder: {CH2CO}-AR[Ahp(2)]YHDGVLA[Ahp(2)]DC (thioether N-13) [I-1 analogue with Ala at position 10 (A R Ahp Y H D G V L A Ahp D C)]

Kd (His-tagged CD38): 9.44 nM
Binder: {CH2CO}-AR[Ahp(2)]YHDGV[Met(O2)][Bip][Ahp(2)]DC (thioether N-13; not fully specified) [Circular peptide having amino acid sequence represented by SEQ ID NO.9]

Kd (His-tagged CD38): 4.99 nM
Binder: {CH2CO}-AR[Ahp(2)]YHDEVL[Bip][Ahp(2)]AC (thioether N-13) [Peptide of SEQ ID NO.27]

Binding Assay (larger values indicate stronger binding) [1]: 0.11
Binder: {CH2CO}-ALH[NMeF]VLA[Bip]VWVC (thioether N-12) [I-2 analogue with Ala at position 7 (A L H MeF V L A Bph V W V C)]

Kd (His-tagged CD38): 3.34 nM
B5: Circular peptide having amino acid sequence represented by SEQ ID NO.23 (peptide)
peptide: ARXYHDEVLXXDC
modifications: not fully specified; Ahp at 3; Bph at 10; Ano ((S)-2-aminononanoic acid) at 11; circular peptide

Binding Assay (larger values indicate stronger binding) [1]: 0.1
Binder: {CH2CO}-ALH[NMeF]VLP[Bip]VAVC (thioether N-12) [I-2 analogue with Ala at position 10 (A L H MeF V L P Bph V A V C)]

Kd (His-tagged CD38): 38 nM
B6: Circular peptide having amino acid sequence represented by SEQ ID NO.14 (peptide)
peptide: {CH2CO}-AR[Ahp(2)]YHDEV[Met(O2)][Bip][Ahp(2)]DC
modifications: thioether N-13; not fully specified; also: circular peptide, closure not given here
